Measured values as given in the supplement of paper PMC5998384.

Tests used:
HeLa Kyoto [1] = experiment: solubility change mitosis vs G1/S (difference of NP-40 vs SDS log2 ratios) (log2 ratio difference); higher = more soluble in mitosis
HeLa Kyoto [2] = experiment: solubility in G1/S (NP-40 vs SDS abundance) (log2 ratio); higher = more soluble; settings: cell cycle stage: G1/S
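Throughout, for solubility change mitosis vs G1/S (difference of NP-40 vs SDS log2 ratios): synchronized HeLa Kyoto cells (double thymidine block for G1/S, nocodazole release for mitosis), protein amounts in NP-40 versus SDS lysates quantified by mass spectrometry, three biological replicates.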
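Throughout, for solubility in G1/S (NP-40 vs SDS abundance): HeLa Kyoto cells arrested at G1/S by double thymidine block, proteins quantified by TMT10plex mass spectrometry in mild NP-40 versus SDS extracts, three biological replicates.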

| Sequence | solubility change mitosis (log2) (HeLa Kyoto [1]) | solubility in G1/S (log2) (HeLa Kyoto [2]) |
| --- | --- | --- |
| MLFTVSCSKMSSIVDRDDSSIFDGLVEEDDKDKAKRVSRNKSEKKRRDQFNVLIKELGSMLPGNARKMDKSTVLQKSIDFLRKHKEITAQSDASEIRQDWKPTFLSNEEFTQLMLEALDGFFLAIMTDGSIIYVSESVTSLLEHLPSDLVDQSIFNFIPEGEHSEVYKILSTHLLESDSLTPEYLKSKNQLEFCCHMLRGTIDPKEPSTYEYVKFIGNFKSLNSVSSSAHNGFEGTIQRTHRPSYEDRVCFVATVRLATPQFIKEMCTVEEPNEEFTSRHSLEWKFLFLDHRAPPIIGYLPFEVLGTSGYDYYHVDDLENLAKCHEHLMQYGKGKSCYYRFLTKGQQWIWLQTHYYITYHQWNSRPEFIVCTHTVVSYAEVRAERRRELGIEESLPETAADKSQDSGSDNRINTVSLKEALERFDHSPTPSASSRSSRKSSHTAVSDPSSTPTKIPTDTSTPPRQHLPAHEKMVQRRSSFSSQSINSQSVGSSLTQPVMSQATNLPIPQGMSQFQFSAQLGAMQHLKDQLEQRTRMIEANIHRQQEELRKIQEQLQMVHGQGLQMFLQQSNPGLNFGSVQLSSGNSSNIQQLAPINMQGQVVPTNQIQSGMNTGHIGTTQHMIQQQTLQSTSTQSQQNVLSGHSQQTSLPSQTQSTLTAPLYNTMVISQPAAGSMVQIPSSMPQNSTQSAAVTTFTQDRQIRFSQGQQLVTKLVTAPVACGAVMVPSTMLMGQVVTAYPTFATQQQQSQTLSVTQQQQQQSSQEQQLTSVQQPSQAQLTQPPQQFLQTSRLLHGNPSTQLILSAAFPLQQSTFPQSHHQQHQSQQQQQLSRHRTDSLPDPSKVQPQ [CLOCK] | -0.192 | 0.134 |
| MLQKPRNRGRSGGQAERDRDWSHSGNPGASRAGEDARVLRDGFAEEAPSTSRGPGGSQGSQGPSPQGARRAQAAPAVGPRSQKQLELKVSELVQFLLIKDQKKIPIKRADILKHVIGDYKDIFPDLFKRAAERLQYVFGYKLVELEPKSNTYILINTLEPVEEDAEMRGDQGTPTTGLLMIVLGLIFMKGNTIKETEAWDFLRRLGVYPTKKHLIFGDPKKLITEDFVRQRYLEYRRIPHTDPVDYEFQWGPRTNLETSKMKVLKFVAKVHNQDPKDWPAQYCEALADEENRARPQPSGPAPSS [NDNL2] | 0.116 | 0.289 |
| MLRTAMGLRSWLAAPWGALPPRPPLLLLLLLLLLLQPPPPTWALSPRISLPLGSEERPFLRFEAEHISNYTALLLSRDGRTLYVGAREALFALSSNLSFLPGGEYQELLWGADAEKKQQCSFKGKDPQRDCQNYIKILLPLSGSHLFTCGTAAFSPMCTYINMENFTLARDEKGNVLLEDGKGRCPFDPNFKSTALVVDGELYTGTVSSFQGNDPAISRSQSLRPTKTESSLNWLQDPAFVASAYIPESLGSLQGDDDKIYFFFSETGQEFEFFENTIVSRIARICKGDEGGERVLQQRWTSFLKAQLLCSRPDDGFPFNVLQDVFTLSPSPQDWRDTLFYGVFTSQWHRGTTEGSAVCVFTMKDVQRVFSGLYKEVNRETQQWYTVTHPVPTPRPGACITNSARERKINSSLQLPDRVLNFLKDHFLMDGQVRSRMLLLQPQARYQRVAVHRVPGLHHTYDVLFLGTGDGRLHKAVSVGPRVHIIEELQIFSSGQPVQNLLLDTHRGLLYAASHSGVVQVPMANCSLYRSCGDCLLARDPYCAWSGSSCKHVSLYQPQLATRPWIQDIEGASAKDLCSASSVVSPSFVPTGEKPCEQVQFQPNTVNTLACPLLSNLATRLWLRNGAPVNASASCHVLPTGDLLLVGTQQLGEFQCWSLEEGFQQLVASYCPEVVEDGVADQTDEGGSVPVIISTSRVSAPAGGKASWGADRSYWKEFLVMCTLFVLAVLLPVLFLLYRHRNSMKVFLKQGECASVHPKTCPVVLPPETRPLNGLGPPSTPLDHRGYQSLSDSPPGSRVFTESEKRPLSIQDSFVEVSPVCPRPRVRLGSEIRDSVV [SEMA4B] | -0.0944 | 0.234 |
| MLTEASLSIWGWGSLGIVLFLITFGPFVIFYLTFYILCFVGGGLVVTLLFGKTNSEKYLEQCEHSFLPPTSPGVPKCLEEMKREARTIKIDRRLTGANIIDEPLQQVIQFSLRDYVQYWYYTLSDDESFLLEIRQTLQNALIQFATRSKEIDWQPYFTTRIVDDFGTHLRVFRKAQQKITEKDDQVKGTAEDLVDTFFEVEVEMEKEVCRDLVCTSPKDEEGFLRDLCEVLLYLLLPPGDFQNKIMRYFVREILARGILLPLINQLSDPDYINQYVIWMIRDSNCNYEAFMNIIKLSDNIGELEAVRDKAAEELQYLRSLDTAGDDINTIKNQINSLLFVKKVCDSRIQRLQSGKEINTVKLAANFGKLCTVPLDSILVDNVALQFFMDYMQQTGGQAHLFFWMTVEGYRVTAQQQLEVLLSRQRDGKHQTNQTKGLLRAAAVGIYEQYLSEKASPRVTVDDYLVAKLADTLNHEDPTPEIFDDIQRKVYELMLRDERFYPSFRQNALYVRMLAELDMLKDPSFRGSDDGDGESFNGSPTGSINLSLDDLSNVSSDDSVQLHAYISDTVYADYDPYAVAGVCNDHGKTYALYAITVHRRNLNSEEMWKTYRRYSDFHDFHMRITEQFESLSSILKLPGKKTFNNMDRDFLEKRKKDLNAYLQLLLAPEMMKASPALAHYVYDFLENKAYSKGKGDFARKMDTFVNPLRNSMRNVSNAVKSLPDSLAEGMTKMSDNMGKMSERLGQDIKQSFFKVPPLIPKTDSDPEHRRVSAQLDDNVDDNIPLRVMLLLMDEVFDLKERNQWLRRNIKNLLQQLIRATYGDTINRKIVDHVDWMTSPEQVADSVKRFRDAFWPNGILAEAVPCRDKSIRMRTRVAGKTKLLAIMPDELKHIIGAETTRKGILRVFEMFQHNQLNRRMVYVFLEGFLETLFPQYKFRELFNKLHSRSKQMQKYKQKLQTTQAPSLQKR [SNX13] | -0.0268 | -0.221 |
| MLWLALGPFPAMENQVLVIRIKIPNSGAVDWTVHSGPQLLFRDVLDVIGQVLPEATTTAFEYEDEDGDRITVRSDEEMKAMLSYYYSTVMEQQVNGQLIEPLQIFPRACKPPGERNIHGLKVNTRAGPSQHSSPAVSDSLPSNSLKKSSAELKKILANGQMNEQDIRYRDTLGHGNGGTVYKAYHVPSGKILAVKVILLDITLELQKQIMSELEILYKCDSSYIIGFYGAFFVENRISICTEFMDGGSLDVYRKMPEHVLGRIAVAVVKGLTYLWSLKILHRDVKPSNMLVNTRGQVKLCDFGVSTQLVNSIAKTYVGTNAYMAPERISGEQYGIHSDVWSLGISFMELALGRFPYPQIQKNQGSLMPLQLLQCIVDEDSPVLPVGEFSEPFVHFITQCMRKQPKERPAPEELMGHPFIVQFNDGNAAVVSMWVCRALEERRSQQGPP [MAP2K5] | -0.109 | 0.128 |
| MMKKKKFKFKVDFELEELSSVPFVNGVLFCKMRLLDGGSFTAESSREVVQANCVRWRKKFSFMCKMSASAATGILDPCIYRVSVRKELKGGKAYAKLGFADLNLAEFAGSGNTTRRCLLEGYDTKNTRQDNSILKVLISMQLMSGDPCFKTPPSTSMSIPIAGESESLQEDRKGGETLKVHLGIADLSAKSASVPDELGACGHSRTSSYASQQSKVSGYSTCHSRSSSFSELCHRRNTSVGSTSTGVESILEPCDEIEQKIAEPNLDTADKEDTASEKLSRCPVKQDSVESQLKRVDDTRVDADDIVEKILQSQDFSLDSSAEEEGLRLFVGPGGSTTFGSHHLPNRVGSGAYEQVVIKR [FAM102B] | 0.0662 | -0.233 |
| MMWRPSVLLLLLLLRHGAQGKPSPDAGPHGQGRVHQAAPLSDAPHDDAHGNFQYDHEAFLGREVAKEFDQLTPEESQARLGRIVDRMDRAGDGDGWVSLAELRAWIAHTQQRHIRDSVSAAWDTYDTDRDGRVGWEELRNATYGHYAPGEEFHDVEDAETYKKMLARDERRFRVADQDGDSMATREELTAFLHPEEFPHMRDIVIAETLEDLDRNKDGYVQVEEYIADLYSAEPGEEEPAWVQTERQQFRDFRDLNKDGHLDGSEVGHWVLPPAQDQPLVEANHLLHESDTDKDGRLSKAEILGNWNMFVGSQATNYGEDLTRHHDEL [RCN3] | 0.262 | 0.0765 |
| MNDISQKAEILLSSSKPVPKTYVPKLGKGDVKDKFEAMQRAREERNQRRSRDEKQRRKEQYIREREWNRRKQEIKEMLASDDEEDVSSKVEKAYVPKLTGTVKGRFAEMEKQRQEEQRKRTEEERKRRIEQDMLEKRKIQRELAKRAEQIEDINNTGTESASEEGDDSLLITVVPVKSYKTSGKMKKNFEDLEKEREEKERIKYEEDKRIRYEEQRPSLKEAKCLSLVMDDEIESEAKKESLSPGKLKLTFEELERQRQENRKKQAEEEARKRLEEEKRAFEEARRQMVNEDEENQDTAKIFKGYRPGKLKLSFEEMERQRREDEKRKAEEEARRRIEEEKKAFAEARRNMVVDDDSPEMYKTISQEFLTPGKLEINFEELLKQKMEEEKRRTEEERKHKLEMEKQEFEQLRQEMGEEEEENETFGLSREYEELIKLKRSGSIQAKNLKSKFEKIGQLSEKEIQKKIEEERARRRAIDLEIKEREAENFHEEDDVDVRPARKSEAPFTHKVNMKARFEQMAKAREEEEQRRIEEQKLLRMQFEQREIDAALQKKREEEEEEEGSIMNGSTAEDEEQTRSGAPWFKKPLKNTSVVDSEPVRFTVKVTGEPKPEITWWFEGEILQDGEDYQYIERGETYCLYLPETFPEDGGEYMCKAVNNKGSAASTCILTIESKN [NEXN] | 0.21 | -0.858 |
| MNFTPTHTPVCRKRTVVSKRGVAVSGPTKRRGMADSLESTPLPSPEDRLAKLHPSKELLEYYQKKMAECEAENEDLLKKLELYKEACEGQHKLECDLQQREEEIAELQKALSDMQVCLFQEREHVLRLYSENDRLRIRELEDKKKIQNLLALVGTDAGEVTYFCKEPPHKVTILQKTIQAVGECEQSESSAFKADPKISKRRPSRERKESSEHYQRDIQTLILQVEALQAQLGEQTKLSREQIEGLIEDRRIHLEEIQVQHQRNQNKIKELTKNLHHTQELLYESTKDFLQLRSENQNKEKSWMLEKDNLMSKIKQYRVQCKKKEDKIGKVLPVMHESHHAQSEYIKSLKDKLVQEKKLSNMYQEQCISLEEELARIREEEGMRREIFKDRTNKMGKRLQIMTKRYEALERRRILEVEGFKTDIKVLRQKLKDLEQMLYKATVNARANQDLALLCEVRDSNRRAHKIQGELKNLKSKVFGLENELRLC [CCDC77] | 0.373 | -0.0939 |
| MNGFTPDEMSRGGDAAAAVAAVVAAAAAAASAGNGTGAGTGAEVPGAGAVSAAGPPGAAGPGPGQLCCLREDGERCGRAAGNASFSKRIQKSISQKKVKIELDKSARHLYICDYHKNLIQSVRNRRKRKGSDDDGGDSPVQDIDTPEVDLYQLQVNTLRRYKRHFKLPTRPGLNKAQLVEIVGCHFRSIPVNEKDTLTYFIYSVKNDKNKSDLKVDSGVH [SAP30] | 0.267 | 0.247 |
